Data as given in paper PMC4359947.
Ends that are not written are not given here.

Target: MAGI-1 PDZ3 domain, Cy3-labelled, tag-free
Experiment: FRET or BRET

Work on GAIPVMIPAQSKDGSIV (also: Cy5 label (approximately 1 dye/peptide), site not given here) [CAR (CAR^Ex7) C-terminus, Cy5-labelled, tag-free] yielded a Kd of 2 nM.
